From paper PMC8603391 (European biophysics journal : EBJ, 2015)

Key:
[1] = molecular target: T1, GST-My16Ank (uncleaved glutathione S-transferase fusion of the myosin 16 ankyrin domain) (Rattus norvegicus, UniProt Q9ERC1-1 1-402); assay: SPR
T1 sequence (looked up): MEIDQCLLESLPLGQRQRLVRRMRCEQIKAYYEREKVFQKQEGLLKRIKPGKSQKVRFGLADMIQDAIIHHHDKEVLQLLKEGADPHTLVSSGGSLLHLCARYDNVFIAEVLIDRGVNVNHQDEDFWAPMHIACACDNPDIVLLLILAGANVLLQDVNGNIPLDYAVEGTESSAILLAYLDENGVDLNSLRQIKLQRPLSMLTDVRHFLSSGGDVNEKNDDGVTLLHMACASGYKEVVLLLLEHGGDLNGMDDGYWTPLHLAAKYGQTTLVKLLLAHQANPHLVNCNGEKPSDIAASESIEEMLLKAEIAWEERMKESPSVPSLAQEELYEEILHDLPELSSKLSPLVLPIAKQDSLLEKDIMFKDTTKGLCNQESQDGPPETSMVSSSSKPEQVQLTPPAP

[2] = molecular target: T2, Myosin 16 ankyrin domain (My16Ank), GST tag cleaved (Rattus norvegicus, UniProt Q9ERC1-1 1-402); assay: SPR
T2 sequence (looked up): T1 sequence (looked up)

Ka [1]: 3.04e+06 M⁻¹
Kd [1]: 329 nM
koff [1]: 0.000473 s⁻¹
kon [1]: 1440 M⁻¹ s⁻¹
Ka [2]: 1.65e+06 M⁻¹
B1: recombinant His-tagged PP1cδ (protein phosphatase-1 catalytic subunit, δ isoform) (enzyme, UniProt P62140 1-327, looked up)
chain: MADGELNVDSLITRLLEVRGCRPGKIVQMTEAEVRGLCIKSREIFLSQPILLELEAPLKICGDIHGQYTDLLRLFEYGGFPPEANYLFLGDYVDRGKQSLETICLLLAYKIKYPENFFLLRGNHECASINRIYGFYDECKRRFNIKLWKTFTDCFNCLPIAAIVDEKIFCCHGGLSPDLQSMEQIRRIMRPTDVPDTGLLCDLLWSDPDKDVQGWGENDRGVSFTFGADVVSKFLNRHDLDLICRAHQVVEDGYEFFAKRQLVTLFSAPNYCGEFDNAGGMMSVDETLMCSFQILKPSEKKAKYQYGGLNSGRPVTPPRTANPPKKR
